Measured values: the domain aggregation screens of Martell et al. (2025)

Experiment: soluble fraction after stress (log2 fold change); higher = more stays soluble; pooled small domains, quantitative proteomics
Conditions: stress: 50 degC
In short: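 The stress applied to every library was 50°C. These custom libraries of small protein domains were pooled and measured at high throughput with quantitative proteomics as the read-out. Aggregation propensity is expressed as the base-two logarithm of the fold change in how much of each protein remains soluble. The higher the value, the more of that protein stays in solution.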

Sequence	soluble fraction (log2)
HMYTDGVPALTDLKKESKPGRRQYVGVEDIPKVLGGLGITILSTSKGLMSGHQAKKKNIGGELIASV	0.258
HMTMLLEYNVSRSSKWMNKTIMDAEIPDDILIVMIKRNGQVIVPKGSTEILENDILVLSGNNLNEVALG	-2.33
HMYEDIDSAYRILEINSTVSNQEIKNAYRRMAKKYHPDKVAHLGVEHQKGAEEKFKKVQEAYILIKKRRG	-0.557
HMAEANTEADFVAIGVRAELLPILQKLGVHTIEQLKGIKATKLFNDIPGMRKKLKLDAVQNPTLQEIEGWL	0.00541
HMGDLLTVDRVAATSGLGVDTIRYYQRLGLLDPPVRHGRRALYSTAHLDRLVEIRQLADEGFSLAQIATL	-1.08
HMQRAEQLPAELAAVFRAETEAWGFFERQPPGYQRVAIHWVASAKQEATRLRRLAKLIEESAAGRR	-1.7
HMFEMPTSLVRTLSAIAIKQPVMQSEIIKLRGAGAYDHIKELIIRELVHRKEEGRSPILTTTKKFQEYFRL	-2.33
HMNNENELSSIISKVLEENPAEKERFLNGEKKLAGFFMGKIMKATKGTADPKKAAQLLNEIL	0.295
HMSDNLTIVRAVYSGLSQRQAAATYHVSRNTVSLLLRHARNRGWLTLEDLAQLDNAAFSKSL	-4.13
HMTTKEEAAYQAIRSAIIDGELKPGQSVTIRDLASRFDLGRTPITDAMKHLALDGWLETTTGVGTRV	-0.106
HMDLKSLEFAIVENVQRHDLNPLEEAQGYKRLIDEFSYDQDKVSKFIGKSRSYITNSLRLLNLPLEVLEF	-0.049
HMHSFFGDNIKKLRTAKKMSQEQLADIFGITKAGISYWETGRSEPNFATVQKLADFFGVTTSDLLGEA	-0.194
HMRPYAYGTGRRKSSTARVHLIPNGSGSITINGRTLDEYFGLETLKLIVRQPLAATETAEKFDVEATVV	-0.415
HMEPADALVAALVARGVSPSTARITVKQYPATRIQPQLEVFDYLVAQKDPKVSRNPPGFLLSAIRGEYA	-0.188
HMLIIDLPDFTNKKLSELQQWADANQITLKIVEKDVSSKPYDTILEQTPAKNKYEKIVKGSTMTVTVNIK	-0.562
HMDIYLDDINRKILHLLSQGVKTKSLRDYIDLSMSAIEKRKKHLKDLFLIEDGKDETLLSEARKKGF	-0.672
HMENIIKISASYEGLRVDQFLSNYLKISRSKVQKYISEEKIFLNNVPTKTNRKVKLDDIISYNLNF	-3.01
HMKKTTEFAVTPEFQQRLEASPELKAAFQALTPGRQRAHLLFFAAPKQAQTRQARIEKSLPQIMAGKGLN	-0.184
HMGTLPSLAPSGEKTVRLPNLAGWSLRETMEILQKGGLQLLPIGSGISFKQSPPPGTTLNEGDAVTVWF	0.0292
HMEKTIQIYDNIIIKDFAEKMEVSPSQVITKLIGLGVMANLNQPIDINSAVIVGKEFGFNVESM	-0.674
HMSPTEQEKIGLFIKKLREEKNLTQEAFASLLKTSQSAVARIESGNQNITIEQLMKIGEVLNHNIVSI	0.0103
HMKTGAKLKNLRKMKKLSQEEVAKVLNLSYSTLSRWENDTRIPTYEDLFKLGQFYGVSVDYLSDPN	-0.359
HMAPAILTVQVKPDKIREIIGPGGKMIRMIQSETNTRVEVDDSGLVKIAAVSKEEGEAALKMVSDITME	0.134
HMRSFADEGTVEEWIKQAIRENEAAVADYRKGKETAVKFLMGQVMRLSKGEANPADLEDKIKAKLD	0.0903
HMAGTRRFELVEGSSSKFWEVTVADGSYTVTYGRIGTAGGSKTTESATAEADAEKLVREKLKKGYQEAGAA	0.245

Sequence	soluble fraction (log2)
HMYGTERILAQLANYGIPNKLAFQIQDFYKEETLQIVEQQPYRLVEDIQGMGFKIADQLAEELGI	-0.317
HMSGPDGLTEREIEVLRLLASGLSNRAIGERLYISTNTAANHVRSILLKTGAANRTQAAMYAADHEML	-1.37
HMPLQYRLTVQPTPTNARVRLVNSAFTYRPGVALPPGSYIVEVSSSGYGAKRQAVQIADGDVTVPVELEKI	-0.012
HMDEEQIASRRALIMRAAREIMETQGMEALSIRKIAAMIQQTPGIIYHYFSGKEELMLAVVQEGYH	0.111
HMGPIITKTYNLSYATARDVNDIIKSKKSARGDIVIDTRTNSLIVSDVQEKIDLIDEIVATL	-0.27
HMENMSFGTKLYTWLYGKLVGSDEIGNKYYTNINDPSDLNAKRWVIFNGEIEASKIPPHWHAWLHKSIDK	-0.646
HMVEELDVQFIKLTVQGDHPWKNKKIRELSIPWDLLFVLIIRGDKSIIPNGKTTIKDGDIVVVSAPEYRG	-0.676
HMSVRPMVEILRVVGSPSPVWVTWARNRAAWLYETGIRPQQRLRMADGTEVLIRLVGEFAHILVVGG	-0.31
HMEEAQWEFKWENTDSAEIHGPHSSSEMLKWQENSFFAKGVYVRKVGGDTTDFTDGKRIDFDLY	-0.822
HMENQGEDMRQQVKALVNADKTNITKLATATGYSRSTISMYLAGNYKGDVEAVERRLEEYMKTQG	-0.0136
HMQVTGLTAENAHRVTMIREKGTDHPPVPFHFRKEHHGTGNYVHLYGNPEDRNELHSRDFKDWEAVAFK	0.25
HMKISIPQEYFEIYNVLKQRPMHINEISKILKKPVSEISGTISLMEIEGYITKLTTDQYVLKKI	-0.143
HMSDVVFRINANGLNVSGLANGERVSVYDTTGKLVTTAVSTQDNGTLNLPLKQSGGIYIARTQSGVSFKFT	-0.411
HMGSVHDAATDRIREMILGGQFEPGERLRQDDLATSLGVSTMPVREALRQLQAEGLVVFYPRKGAVVAR	0.142
HMASIATLTVKALGGASDVVIRDKDGRIIWADRLPAGQSHRVFGHAPFNVAASHASRVQLSLLGKDVGRV	-0.719
HMQAGILTDTAAKNARIKKIDTERLEAELDQKRIVIVTGFQGVDRNQNITTLGRGGSDTSAVALAAAVSIT	0.185
HMRLSVRQRMSDVLGALKTQAFVEFTQLFRPQEGRMGVTVTFSAILELLREGLIEIVQSEPFAPIHVRAGA	-0.0036
HMALLKRQDEILMYLYTQNKWITGNELAQLFHVSLRTIRNDISFINTEKSNSVLSNRNKGYHIAKDFVYNE	-0.924
HMPDYYAILEVERTADAKTIKAAYRKLALAYHPDRNPGDQAAEERFKQINEAYAVLSDPEKRARYDRYGSV	-0.31
HMNDTVGMNIRRLRKERGMTQGDLADKAGIQRETISKYESNKLTPPSYNLESIEKALKVPAGTLAQ	0.0652
HMSLTYTGKFILNHNNIDQSSFNINIYLVNKQTIIQITKPFYGNVLNIKFNEENDLIISPKQFS	-0.146
HMTRNGTVTFFNHDKGYGFIKDVLTQESVFVHINSLSEPINEQNKVSFEIEMGPRGSNAINVKLI	-1.97
HMGWTTPAGIAVGMDKSVLQDAYGKEDDTFQDKGILYYQYFVHPSRMSGLSFGIKNDKIVSITAYMD	-2.06
HMLESVMHSRIAEIISREGTAPAHMSMQEKIRVVHKLDADGILMMKGAVAEIADQLSVSVPTIYRYLNKPQ	-1.8
HMVDSLTIGRRIRQLRTERGMTLEELAAAVGRAPSQLSMIENGRREPKLTLLQAIARALGSTLDALLE	-0.116

Sequence	soluble fraction (log2)
HMDSDIGQQLKILLTVGTFMPSTELKAIAQQFGMKKPTDLKEWVELESDTQRIKGNPTKGYWINEINDL	-0.562
HMVINQRKLNLLSIYSSGSEKRAIILFPTGQTKFVKVGDTLDGGRVAAIGTSEIRYLKGGNNLVLRIPG	-2.63
HMDDEDLAFLQREFVSYQQAMDYYGLGYKPVVRLSHISGSVYKIGKKVLIRRNIFEEYLRNHV	-0.00496
HMRKNVAGITPNVYGMGLKDAVYLLENAGYRVKVNGRGNVVRQSINSGTRIIKGQLIILDLD	-2.73
HMYTVRDGDTVFGILNRFGVSLDELLSLNPELSNGLKAGMVLKIK	-0.491
HMFTRFTVAQDGWTIGGFTAKEMAVSTAKQHAVDTGKPVTVVAHVAGGGSREAIFNSDGTNDKIWN	0.0601
HMENMTLGQRIQALRKQHGLSQEGLGERLGVSRQAISRWEMDGAVPEVDKLIAMARLFGVSLNQLLGVE	-0.193
HMHKPLRILVYEELRMLIMTGQIKPGTRMMEIDLAESMGVSRTPVREAIRQLEKDNLVTIEPRRGAYVSD	-2.45
HMNDELMEQIDEWHKAEKHQEIIDALEQIPEAERDFETTGFLARAYNNIEEYAKAADLLESVRE	0.0873
HMGEIVVPDLIGKSLTEATRILSDSTLTVGKVNYQISSTLLPNTVLDQYPAPGNKLNSGNTVDLFITKE	-0.0436
HMTRTISKVAKELAINIETVRFYERRGLIEQPPKPELGYRHYPDETVNRIRFIKRAQELGFTLEEIANLLS	-1.75
HMKDLTIRQQQFLNYIKDHLSLTGFPPTRSDIANEMGFKSPNAAEDHLRALARKGAIEIVPGTSRGIRLP	-0.24
HMGAVFEFIMEEEEPERIDKLLSSALPDLSRSYLQKLVKEGAVLVNKKEVKPNHKVNPGDVVEISVPEPE	0.18
HMSDAIQLEQKIGLEAIEWYLALSEQTDDKLLYQQWQSWLAADPQHQLAWSRIEQVNHGLNTL	-0.706
HMNLSSETLSEMEARIGQMGVVELQDRRAYLLQEQEGTQNPSRLKEIADELSAIQKALVALV	0.1
HMKGQLVVFPNPASSNDMVRFNKNISFSIFDITGHLVDTKRNVNELSVGNLEAGTYILRTEQGDVLRMVI	-1.24
HMAAVSTDEEFAALGIPAEWIPVLKSNGFQTVESLKKVAPGALFNQLGGLRKKNKLEIAMPSLDQVKAWLA	0.115
HMQTMTDDQVMQYVISQQEKGATQQDIVSKLLQKGVTVDQMRRIRKKYEAQQSQPGALDLTGSS	0.209
HMLISYRVDALANEAGLSVDTIRYYQKLGILDPPKRTGRHSEYSPDHLERLIEIRRLADAGLTLSQISEI	-2.46
HMRSVEVAAEPGMVLEDRQTGFVGAVVAVEKSGGTHLVVLEDRHGLRRGFPLGPGFWLEGRPVVLAPPP	-0.227
HMLRMTRNRQKLVEVLMESGRPLSADEIREAAGFASTDLVTVYRNLEAFQSAGLLQRIPLENGSQLFELT	-0.478
HMGTIEEYSKYLINQYFDSLKKPMDAMTTSEKIEIVKSLDKKGIFNLKGSVGELAKRFNTSEKTIYRYLSS	0.0367
HMEGDKEIPNVIGKSINDAKKILEQAGLKLGEVKKVNDSSVAKNVVLSTNPNAGTKVSAGDAVSITVAEG	0.0251
HMGKTEMPFSTFLTEVDKGNIVSVDIRGSEISGNFRDGKGFKTYSPNYPNLVEKLSAKGVAITAGPR	0.187
HMGEPVNSPMPGTILRVEVTQGAAVKEGQLLVVLEAMKMENEILAPKDGTVAQVVVQKGSHVETGSPLIVL	-0.217
